This test has as its target Recombinantly expressed GPIb protein fragment of a gain-of-function mutant of the human GPIb protein (human) (UniProt P07359). Put plainly: latex agglutination VWF activity assay; HBR total protein up to 0.02 mg/mL in solution, comparison control.

A value given as a limit tells only on which side of the number the result lay.

Chain of UniProt P07359 (P07359 other isoform, or with tags, fused parts or gaps mutant): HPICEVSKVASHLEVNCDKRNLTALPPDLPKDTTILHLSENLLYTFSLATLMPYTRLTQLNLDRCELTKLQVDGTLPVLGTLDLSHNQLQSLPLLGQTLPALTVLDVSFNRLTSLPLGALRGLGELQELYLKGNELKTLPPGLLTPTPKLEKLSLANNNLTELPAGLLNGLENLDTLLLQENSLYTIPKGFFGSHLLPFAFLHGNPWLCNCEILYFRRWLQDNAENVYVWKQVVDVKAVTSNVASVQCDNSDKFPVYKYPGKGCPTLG

Take “HBR-1 reagent (Heterophilic Blocking Reagent 1, Scantibodies Laboratory, Inc.) containing a mixture of mouse immunoglobulins”: the reduction of the VWF activity measured was below 2.6%.
